# Assay results reported in paper PMC6344521.
# T1: nucleoprotein (NP) of influenza A, prototype human isolate A/Wilson-Smith/1933 (influenza A virus (strain A/Wilson-Smith/1933)), P15682
# T1 chain: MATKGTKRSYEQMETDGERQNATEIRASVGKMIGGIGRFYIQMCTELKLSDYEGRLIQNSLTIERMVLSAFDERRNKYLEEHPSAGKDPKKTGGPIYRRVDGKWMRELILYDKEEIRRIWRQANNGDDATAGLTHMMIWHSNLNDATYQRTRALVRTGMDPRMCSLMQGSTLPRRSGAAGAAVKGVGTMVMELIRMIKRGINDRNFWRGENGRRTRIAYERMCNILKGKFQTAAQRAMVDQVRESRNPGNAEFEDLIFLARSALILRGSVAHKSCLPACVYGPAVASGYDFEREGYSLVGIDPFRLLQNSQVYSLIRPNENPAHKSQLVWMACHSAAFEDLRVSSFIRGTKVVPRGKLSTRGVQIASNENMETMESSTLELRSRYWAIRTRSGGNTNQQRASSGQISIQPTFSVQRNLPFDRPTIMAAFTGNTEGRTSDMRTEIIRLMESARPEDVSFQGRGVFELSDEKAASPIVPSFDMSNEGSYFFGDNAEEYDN
# B1: nucleoprotein (NP) of influenza A, prototype human isolate A/Wilson-Smith/1933, P15682 1-498 (natural protein)
# chain: T1 chain
# Columns and labels:
# [1] = target: OVX836, NP of influenza A (A/Wilson-Smith/1933) fused through its C-terminus to the oligomerization domain OVX313 (influenza A virus (strain A/Wilson-Smith/1933)); assay: reversed-phase chromatography (RP-UHPLC)
# [2] = target: OVX836, NP of influenza A (A/Wilson-Smith/1933) fused through its C-terminus to the oligomerization domain OVX313 (influenza A virus (strain A/Wilson-Smith/1933)); assay: SEC
# [3] = target: T1, nucleoprotein (NP) of influenza A, …; assay: SEC; details: remark: other sources report otherwise
Molecule,stoichiometry N [1],stoichiometry N [2],stoichiometry N [3]
"OVX836, NP of influenza A (A/Wilson-Smith/1933) fused through its C-terminus to the oligomerization domain OVX313",7,7,
B1,,,3
